Measurements as given in patent US20150044237A1 (CENTRE NATIONAL DE LA RECHERCHE SCIENTIFIQUE, published 2015).

Columns and labels:
CD28 on human cells = target: T1, CD28 on human cells (human, UniProt P10747 19-220); assay: inferred from inhibition of cell death by anti-CD28 blocking antibody on JKCD28high cells
T1 construct: whole, on cells; also called CD28 receptor
Experimental: FIG. 14: Effect of the pFasL and CD80-pFasL chimeras on the JKCD28low, JKCD28high and JKCD28delta cell lines. Panel A: membrane expression of Fas and CD28 on the three cell lines. The cells were stained with the indicated antibodies, or with an isotype-matched negative control antibody (shaded histograms) then analysed by flow cytometry. Panel B: the apoptotic activity of the pFasL and CD80-pFasL chimeras was tested against the three cell lines (JKCD28 low: empty triangles; JKCD28high: filled triangles; JKCD28delta: squares) at a range of concentrations, measured in the FasL ELISA. Cell death was estimated by the MTT viability assay. Mean and sd from three distinct experiments. Panel C: the pFasL and CD80-pFasL chimeras were used at a non-saturating concentration that triggers a suboptimal cell death. The JKCD28low and JKCD28high cell lines were pre-incubated without (no antibody) or with an isotype-matched control antibody at 10 μg/mL or with the CD28.2 clone of anti-CD28 blocking antibody at 10, 3 or 1 μg/mL. Cell death was measured using the MTT cell viability assay. Mean and sd from three distinct experiments.
To analyse this possibility, the inventors conducted experiments where CD28 was blocked using a neutralising antibody. […]

[1] = target: T2, Fas (CD95/APO-1) on Jurkat cells (human, UniProt P25445 26-335); assay: cell-based or functional assay
T2 sequence (looked up): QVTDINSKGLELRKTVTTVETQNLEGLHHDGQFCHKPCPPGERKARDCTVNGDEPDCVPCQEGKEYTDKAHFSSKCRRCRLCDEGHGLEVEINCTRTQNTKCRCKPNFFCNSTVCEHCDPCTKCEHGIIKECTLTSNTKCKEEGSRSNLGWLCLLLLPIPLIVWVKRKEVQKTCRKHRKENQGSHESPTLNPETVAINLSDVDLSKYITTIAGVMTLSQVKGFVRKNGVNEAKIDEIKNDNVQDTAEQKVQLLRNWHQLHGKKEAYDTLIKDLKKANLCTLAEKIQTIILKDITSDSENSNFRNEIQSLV

B1: CD80-pFasL (other)
chain: VIHVTKEVKEVATLSCGHNVSVEELAQTRIYWQKEKKMVLTMMSGDMNIWPEYKNRTIFDITNNLSIVILALRPSDEGTYECVVLKYEKDAFKREHLAEVTLSVKADFPTPSISDFEIPTSNIRRIICSTSGGFPEPHLSWLENGEELNAINTTVSQDPETELYAVSSKLDFNMTTNHSFMCLIKYGHLRVNQTFNWNTTKQEHFPSSIPDSQTKVFPQDKVILVGSDITFCCVSQEKVLSALIGHTNCPLIHLDGENVAIKIRNISVSASSGTNVVFTTEDNIFGTVISRALQKELAELRESTSQMHTASSLEKQIGHPSPPPEKKELRKVAHLTGKSNSRSMPLEWEDTYGIVLLSGVKYKKGGLVINETGLYFVYSKVYFRGQSCNNLPLSHKVYMRNSKYPQDLVMMEGKMMSYCTTGQMWARSSYLGAVFNLTSADHLYVNVSELSLVNFEESQTFFGLYKL
notes: Polymeric, produced in HEK 293T cells; also called CD80IgFasL; CD80-IgFasL polymeric chimera
Question: Does B1 bind (CD28 on human cells)?
Answer: Result: binds

Question: What about the “C50 against pFasL, JKCD28delta cell line” value [1] of the same binder?
Answer: Its value is 10 fold increase against pFasL.

Question: What about the “C50 against pFasL, JKCD28high cell line” value [1] of the same binder?
Answer: Its value is 2.5 fold decrease against pFasL.

Question: And the “C50 against pFasL, JKCD28low cell line” value [1]?
Answer: The value was 17 fold decrease against pFasL.
